Measured values reported in PMC6193142.

Molecular target: fibrillin (of fibrillin microfibrils purified from the ciliary zonule) (bovine (endogenous in ciliary zonule)) (UniProt P98133)
Test: negative-stain TEM with single-particle 3D reconstruction; microfibrils purified from bovine ciliary zonule; 2797 repeat particles; 2-fold symmetry imposed along the microfibril axis; sub-models of bead, arm and interbead; number of chains judged from volume and from fitting domain models into the interbead density

stoichiometry N (molecules per microfibril repeat): 8
Substance: fibrillin (of fibrillin microfibrils purified from the ciliary zonule) (from UniProt P98133 25-2871) (natural protein)
